Results: patent US20080050374A1 (AMBRX, published 2008)

Experiments:
[1] = biological target: T1, EGF receptor (on A431 cells) (UniProt P00533 25-1210, limits assumed); test: competition flow cytometry on A431 cells against mAb-108 (7.5 nM)
T1 construct: whole, on cells; also called EGF receptors
Method: (§1) Unbound scFv proteins were removed by washing following centrifugation (repeated 2-3 times). […] After two washes, the cells were incubated with an APC-labeled (allophycocyanin) anti-mouse antibody (10 ug/ml) for 30 minutes on ice. After washing the cells two times to remove the secondary antibody, the cells were re-suspended in FACS buffer supplemented with propidium iodine (0.5 ug/ml), and analyzed by flow cytometry. […] Fab binding was detected using an anti-His antibody followed by an APC-labeled anti-mouse secondary antibody.
(§2) Cells were incubated with the scFv proteins at various concentrations after washing to remove unbound scFv's, and the cells were treated with the mAb108 as described above. All proteins were expressed in the periplasm. Table 11 summarizes the binding of the modified scFv's (pAcF and pAcF with PEG) relative to the wild type scFv: […]

[2] = biological target: T1, EGF receptor (on A431 cells); test: Flow cytometry competition on A431 cells expressing EGF receptors: cells incubated with the scFv at varied concentration and washed, then mAb108 (competitor, 7.5 nM) detected with APC-labeled anti-mouse antibody; y axis Median
Method: as §1, §2

[3] = biological target: T1, EGF receptor (on A431 cells); test: flow cytometry on A431 cells; Fab detected with anti-His antibody and APC-labeled anti-mouse antibody
Method: as §1
PEGylation of the Fab fragments results in a minimal decrease in the affinity of the fragments to the EGF receptors. Binding conditions were as described previously.

B1: pAcF-scFv-108-(S136) (scFv)
scFv: QVQLQQSGAELMKPGASVKISCKATGYTFSSYWIEWVKQRPGHGLEWIGEILPGSKKTNYNEKFKGKATFTADTSSNTAYMQFSSLTSEDSAVYYCARYYYRNDDYGMDYWGQGTSVTVSSGGGGSGGGGSGGGGXGGGGSEIHMTQTTSSLSASLGDRVTISCSASQDIRNYLNWYQQKPDGTVKLLIYYTSTLHSGVPSRFSGSGSGTDYSLTISNLEPEDIATYYCQQYSKIPYTFTGGTKLEIKRADAAEQKLISEEDLNSAVDHHHHHH
modifications: p-acetyl-phenylalanine (pAcF) in place of Ser136
notes: X stands for pAcF; also called Ser136pAcF; pAcF-scFv-(S136)
IC50 relative to wild type scFv [1]: 1.6 x
IC50 [2]: 13.1 nM

B2: scFv-108 Lys248pAcF (scFv)
scFv: QVQLQQSGAELMKPGASVKISCKATGYTFSSYWIEWVKQRPGHGLEWIGEILPGSKKTNYNEKFKGKATFTADTSSNTAYMQFSSLTSEDSAVYYCARYYYRNDDYGMDYWGQGTSVTVSSGGGGSGGGGSGGGGSGGGGSEIHMTQTTSSLSASLGDRVTISCSASQDIRNYLNWYQQKPDGTVKLLIYYTSTLHSGVPSRFSGSGSGTDYSLTISNLEPEDIATYYCQQYSKIPYTFTGGTKLEIXRADAAEQKLISEEDLNSAVDHHHHHH
modifications: p-acetyl-phenylalanine (pAcF) in place of Lys248
notes: X stands for pAcF
IC50 relative to wild type scFv [1]: 2.1 x

B3: scFv-108 wild type (periplasmic, VH-(GGGGS)4-VL-myc-6xHis) (scFv)
scFv: QVQLQQSGAELMKPGASVKISCKATGYTFSSYWIEWVKQRPGHGLEWIGEILPGSKKTNYNEKFKGKATFTADTSSNTAYMQFSSLTSEDSAVYYCARYYYRNDDYGMDYWGQGTSVTVSSGGGGSGGGGSGGGGSGGGGSEIHMTQTTSSLSASLGDRVTISCSASQDIRNYLNWYQQKPDGTVKLLIYYTSTLHSGVPSRFSGSGSGTDYSLTISNLEPEDIATYYCQQYSKIPYTFTGGTKLEIKRADAAEQKLISEEDLNSAVDHHHHHH
notes: also called WT scFv
IC50 [1]: 8.1 nM
IC50 relative to wild type scFv [1]: 1 x

B4: scFv-108 Tyr190pAcF (scFv)
scFv: QVQLQQSGAELMKPGASVKISCKATGYTFSSYWIEWVKQRPGHGLEWIGEILPGSKKTNYNEKFKGKATFTADTSSNTAYMQFSSLTSEDSAVYYCARYYYRNDDYGMDYWGQGTSVTVSSGGGGSGGGGSGGGGSGGGGSEIHMTQTTSSLSASLGDRVTISCSASQDIRNYLNWYQQKPDGTVKLLIXYTSTLHSGVPSRFSGSGSGTDYSLTISNLEPEDIATYYCQQYSKIPYTFTGGTKLEIKRADAAEQKLISEEDLNSAVDHHHHHH
modifications: p-acetyl-phenylalanine (pAcF) in place of Tyr190
notes: X stands for pAcF
IC50 relative to wild type scFv [1]: 2.1 x

B5: pAcF-scFv-108-(L156) (scFv)
scFv: QVQLQQSGAELMKPGASVKISCKATGYTFSSYWIEWVKQRPGHGLEWIGEILPGSKKTNYNEKFKGKATFTADTSSNTAYMQFSSLTSEDSAVYYCARYYYRNDDYGMDYWGQGTSVTVSSGGGGSGGGGSGGGGSGGGGSEIHMTQTTSSLSASXGDRVTISCSASQDIRNYLNWYQQKPDGTVKLLIYYTSTLHSGVPSRFSGSGSGTDYSLTISNLEPEDIATYYCQQYSKIPYTFTGGTKLEIKRADAAEQKLISEEDLNSAVDHHHHHH
modifications: p-acetyl-phenylalanine (pAcF) in place of Leu156
notes: L156 lies in the VL chain; X stands for pAcF; also called Leu156pAcF
IC50 relative to wild type scFv [1]: 1.8 x

B6: pAcF-scFv-108-(S131) conjugated to 5K PEG (scFv)
scFv: QVQLQQSGAELMKPGASVKISCKATGYTFSSYWIEWVKQRPGHGLEWIGEILPGSKKTNYNEKFKGKATFTADTSSNTAYMQFSSLTSEDSAVYYCARYYYRNDDYGMDYWGQGTSVTVSSGGGGSGGGGXGGGGSGGGGSEIHMTQTTSSLSASLGDRVTISCSASQDIRNYLNWYQQKPDGTVKLLIYYTSTLHSGVPSRFSGSGSGTDYSLTISNLEPEDIATYYCQQYSKIPYTFTGGTKLEIKRADAAEQKLISEEDLNSAVDHHHHHH
modifications: p-acetyl-phenylalanine (pAcF) in place of Ser131, conjugated to mono-functional hydroxylamine 5K PEG
notes: also called Ser131pAcF-5K PEG
IC50 relative to wild type scFv [1]: 5 x

B7: pAcF-scFv-108-(L156) conjugated to 5K PEG (scFv)
scFv: QVQLQQSGAELMKPGASVKISCKATGYTFSSYWIEWVKQRPGHGLEWIGEILPGSKKTNYNEKFKGKATFTADTSSNTAYMQFSSLTSEDSAVYYCARYYYRNDDYGMDYWGQGTSVTVSSGGGGSGGGGSGGGGSGGGGSEIHMTQTTSSLSASXGDRVTISCSASQDIRNYLNWYQQKPDGTVKLLIYYTSTLHSGVPSRFSGSGSGTDYSLTISNLEPEDIATYYCQQYSKIPYTFTGGTKLEIKRADAAEQKLISEEDLNSAVDHHHHHH
modifications: p-acetyl-phenylalanine (pAcF) in place of Leu156, conjugated to mono-functional hydroxylamine 5K PEG
notes: also called Leu156pAcF-5K PEG
IC50 relative to wild type scFv [1]: 2.9 x

B8: pAcF-scFv-108-(S131) (scFv)
scFv: QVQLQQSGAELMKPGASVKISCKATGYTFSSYWIEWVKQRPGHGLEWIGEILPGSKKTNYNEKFKGKATFTADTSSNTAYMQFSSLTSEDSAVYYCARYYYRNDDYGMDYWGQGTSVTVSSGGGGSGGGGXGGGGSGGGGSEIHMTQTTSSLSASLGDRVTISCSASQDIRNYLNWYQQKPDGTVKLLIYYTSTLHSGVPSRFSGSGSGTDYSLTISNLEPEDIATYYCQQYSKIPYTFTGGTKLEIKRADAAEQKLISEEDLNSAVDHHHHHH
modifications: p-acetyl-phenylalanine (pAcF) in place of Ser131
notes: S131 is the second serine of the GlySer linker; X stands for pAcF; also called Ser131pAcF; S131Am
IC50 relative to wild type scFv [1]: 1.3 x

B9: pAcF-scFv-108-(S136) conjugated to 5K PEG (scFv)
scFv: QVQLQQSGAELMKPGASVKISCKATGYTFSSYWIEWVKQRPGHGLEWIGEILPGSKKTNYNEKFKGKATFTADTSSNTAYMQFSSLTSEDSAVYYCARYYYRNDDYGMDYWGQGTSVTVSSGGGGSGGGGSGGGGXGGGGSEIHMTQTTSSLSASLGDRVTISCSASQDIRNYLNWYQQKPDGTVKLLIYYTSTLHSGVPSRFSGSGSGTDYSLTISNLEPEDIATYYCQQYSKIPYTFTGGTKLEIKRADAAEQKLISEEDLNSAVDHHHHHH
modifications: p-acetyl-phenylalanine (pAcF) in place of Ser136, conjugated to mono-functional hydroxylamine 5K PEG
notes: also called Ser136pAcF-5K PEG
IC50 relative to wild type scFv [1]: 6.3 x
IC50 [2]: 51 nM

B10: scFv-108 His144pAcF (scFv)
scFv: QVQLQQSGAELMKPGASVKISCKATGYTFSSYWIEWVKQRPGHGLEWIGEILPGSKKTNYNEKFKGKATFTADTSSNTAYMQFSSLTSEDSAVYYCARYYYRNDDYGMDYWGQGTSVTVSSGGGGSGGGGSGGGGSGGGGSEIXMTQTTSSLSASLGDRVTISCSASQDIRNYLNWYQQKPDGTVKLLIYYTSTLHSGVPSRFSGSGSGTDYSLTISNLEPEDIATYYCQQYSKIPYTFTGGTKLEIKRADAAEQKLISEEDLNSAVDHHHHHH
modifications: p-acetyl-phenylalanine (pAcF) in place of His144
notes: X stands for pAcF
IC50 relative to wild type scFv [1]: 2.6 x

B11: scFv-108 Ser259pAcF (scFv)
scFv: QVQLQQSGAELMKPGASVKISCKATGYTFSSYWIEWVKQRPGHGLEWIGEILPGSKKTNYNEKFKGKATFTADTSSNTAYMQFSSLTSEDSAVYYCARYYYRNDDYGMDYWGQGTSVTVSSGGGGSGGGGSGGGGSGGGGSEIHMTQTTSSLSASLGDRVTISCSASQDIRNYLNWYQQKPDGTVKLLIYYTSTLHSGVPSRFSGSGSGTDYSLTISNLEPEDIATYYCQQYSKIPYTFTGGTKLEIKRADAAEQKLIXEEDLNSAVDHHHHHH
modifications: p-acetyl-phenylalanine (pAcF) in place of Ser259
notes: X stands for pAcF
IC50 relative to wild type scFv [1]: 0.5 x

B12: scFv-108 Ser193pAcF (scFv)
scFv: QVQLQQSGAELMKPGASVKISCKATGYTFSSYWIEWVKQRPGHGLEWIGEILPGSKKTNYNEKFKGKATFTADTSSNTAYMQFSSLTSEDSAVYYCARYYYRNDDYGMDYWGQGTSVTVSSGGGGSGGGGSGGGGSGGGGSEIHMTQTTSSLSASLGDRVTISCSASQDIRNYLNWYQQKPDGTVKLLIYYTXTLHSGVPSRFSGSGSGTDYSLTISNLEPEDIATYYCQQYSKIPYTFTGGTKLEIKRADAAEQKLISEEDLNSAVDHHHHHH
modifications: p-acetyl-phenylalanine (pAcF) in place of Ser193
notes: X stands for pAcF
IC50 relative to wild type scFv [1]: 1.8 x

B13: Fab-108 wild type (Fab)
light: TMELEIHMTQTTSSLSASLGDRVTISCSASQDIRNYLNWYQQKPDGTVKLLIYYTSTLHSGVPSRFSGSGSGTDYSLTISNLEPEDIATYYCQQYSKIPYTFTGGTKLEIKRADAAKLEIKRTVAAPSVFIFPPSDEQLKSGTASVVCLLNNFYPREAKVQWKVDNALQSGNSQESVTEQDSKDSTYSLSSTLTLSKADYEKHKVYACEVTHQGLSSPVTKSFNRGEC
heavy: QVQLLEQVQLQQSGAELMKPGASVKISCKATGYTFSSYWIEWVKQRPGHGLEWIGEILPGSKKTNYNEKFKGKATFTADTSSNTAYMQFSSLTSEDSAVYYCARYYYRNDDYGMDYWGQGTSVTVSSAGPSVFPLAPSSKSTSGGTAALGCLVKDYFPEPVTVSWNSGALTSGVHTFPAVLQSSGLYSLSSVVTVPSSSLGTQTYICNVNHKPSNTKVDKKVEPKSCDKHHHHHH
notes: they may include leaders; also called WT Fab; Fab108 WT
EC50 [3]: 4 nM
EC50 relative to wild type Fab [3]: 1 x
